Measured values: patent US20250368744A1 (CONCEPT TO MEDICINE BIOTECH, published 2025)

B1: Hu195H8D10-7 (antibody, V domains shown)
VH: EVQLVESGGGLVQPGGSLRLSCAASGFNFNTYVMNWVRQAPGKGLEWVARIRTKSNNYATYYADSVKDRFTISRDDSKNSLYLQMNSLKTEDTAVYYCVSGTITRLGGGLDYWGQGTLVTVSS
VL: DIVMTQSPLSLPVTPGEPASISCRSSKRLLHSNGNTYLYWYLQKPGQSPQLLIYRMSNLASGVPDRFSGSGSGTAFTLKISRVEAEDVGVYYCMQHLEYPFTFGGGTKLEIK
notes: humanized
B2: Hu195H8D10-5 (antibody, V domains shown)
VH: EVQLVESGGGLVQPGGSLRLSCAASGFNFNTYVMNWVRQAPGKGLEWVARIRTKSNNYATYYADSVKDRFTISRDDSKNSLYLQMNSLKTEDTAVYYCVSGTITRLGGGLDYWGQGTLVTVSS
VL: DIVMTQSPLSLPVTPGEPASISCRSSKRLLHSNGNTYLYWYLQKPGQSPQLLIYRMSNLASGVPDRFSGSGSGTDFTLKISRVEAEDVGVYYCMQHLEYPFTFGGGTKLEIK
notes: humanized
B3: Hu195H8D10-3 (antibody, V domains shown)
VH: EVQLVESGGGLVQPGGSLRLSCAASGFNFNTYVMNWVRQAPGKGLEWVGRIRTKSNNYATYYADSVKDRFTISRDDSKNSLYLQMNSLKTEDTAVYYCARGTITRLGGGLDYWGQGTLVTVSS
VL: DIVMTQSPLSLPVTPGEPASISCRSSKRLLHSNGNTYLYWYLQKPGQSPQLLIYRMSNLASGVPDRFSGSGSGTAFTLKISRVEAEDVGVYYCMQHLEYPFTFGGGTKLEIK
notes: humanized
B4: Hu195H8D10-9 (antibody, V domains shown)
VH: EVQLVESGGGLVQPGGSLRLSCAASGFNFNTYVMNWVRQAPGKGLEWVARIRTKSNNYATYYADSVKDRFTISRDDSKSSLYLQMNSLKTEDTAVYYCVSGTITRLGGGLDYWGQGTLVTVSS
VL: DIVMTQSPLSLPVTPGEPASISCRSSKRLLHSNGNTYLYWYLQKPGQSPQLLIYRMSNLASGVPDRFSGSGSGTDFTLKISRVEAEDVGVYYCMQHLEYPFTFGGGTKLEIK
notes: humanized
B5: Hu195H8D10-8 (antibody, V domains shown)
VH: EVQLVESGGGLVQPGGSLRLSCAASGFNFNTYVMNWVRQAPGKGLEWVARIRTKSNNYATYYADSVKDRFTISRDDSKNSLYLQMNSLKTEDTAVYYCVSGTITRLGGGLDYWGQGTLVTVSS
VL: DIVMTQSPLSLPVTPGEPASISCRSSKRLLHSNGNTYLYWFLQKPGQSPQLLIYRMSNLASGVPDRFSGSGSGTAFTLKISRVEAEDVGVYYCMQHLEYPFTFGGGTKLEIK
notes: humanized
B6: Hu200C9B9-7 (antibody, V domains shown)
VH: EVQLVESGGGLVQPGGSLRLSCAASGFSFNTYVMNWVRQAPGKGLEWVARIRTKSNNYATFYVDSVKDRFTISRDDSKNSLYLQMNSLKTEDTAVYYCVSGTITRLGAGLDYWGQGTLVTVSS
VL: DIVMTQSPLSLPVTPGEPASISCRSSKSLLHSNGNTYLYWYLQKPGQSPQLLIYRMSNLASGVPDRFSGSGSGTAFTLKISRVEAEDVGVYYCMQHLEYPFTFGGGTKLEIK
notes: humanized
B7: Hu195H8D10-11 (antibody, V domains shown)
VH: EVQLVESGGGLVQPGGSLRLSCAASGFNFNTYVMNWVRQAPGKGLEWVARIRTKSNNYATYYADSVKDRFTISRDDSKSSLYLQMNSLKTEDTAVYYCVSGTITRLGGGLDYWGQGTLVTVSS
VL: DIVMTQSPLSLPVTPGEPASISCRSSKRLLHSNGNTYLYWYLQKPGQSPQLLIYRMSNLASGVPDRFSGSGSGTAFTLKISRVEAEDVGVYYCMQHLEYPFTFGGGTKLEIK
notes: humanized
B8: Hu200C9B9-6 (antibody, V domains shown)
VH: EVQLVESGGGLVQPGGSLRLSCAASGFSFNTYVMNWVRQAPGKGLEWVARIRTKSNNYATFYVDSVKDRFTISRDDSKNSLYLQMNSLKTEDTAVYYCVSGTITRLGAGLDYWGQGTLVTVSS
VL: DIVMTQSPLSLPVTPGEPASISCRSSKSLLHSNGNTYLYWFLQKPGQSPQLLIYRMSNLASGVPDRFSGSGSGTDFTLKISRVEAEDVGVYYCMQHLEYPFTFGGGTKLEIK
notes: humanized
B9: Hu200C9B9-16 (antibody, V domains shown)
VH: EVQLVESGGGLVQPGGSLRLSCAASGFSFNTYVMNWVRQAPGKGLNWVARIRTKSNNYATFYVDSVKDRFTISRDDSENSLYLQMNSLKTEDTAVYYCVSGTITRLGAGLDYWGQGTLVTVSS
VL: DIVMTQSPLSLPVTPGEPASISCRSSKSLLHSNGNTYLYWFLQKPGQSPQLLIYRMSNLASGVPDRFSGSGSGTAFTLKISRVEAEDVGVYYCMQHLEYPFTFGGGTKLEIK
notes: humanized
B10: Hu195H8D10-16 (antibody, V domains shown)
VH: EVQLVESGGGLVQPGGSLRLSCAASGFNFNTYVMNWVRQAPGKGLEWVARIRTKSNNYATYYADSVKDRFTISRDDSESSLYLQMNSLKTEDTAMYYCVSGTITRLGGGLDYWGQGTLVTVSS
VL: DIVMTQSPLSLPVTPGEPASISCRSSKRLLHSNGNTYLYWFLQKPGQSPQLLIYRMSNLASGVPDRFSGSGSGTAFTLKISRVEAEDVGVYYCMQHLEYPFTFGGGTKLEIK
notes: humanized
B11: Hu200C9B9-4 (antibody, V domains shown)
VH: EVQLVESGGGLVQPGGSLRLSCAASGFSFNTYVMNWVRQAPGKGLEWVGRIRTKSNNYATFYVDSVKDRFTISRDDSKNSLYLQMNSLKTEDTAVYYCARGTITRLGAGLDYWGQGTLVTVSS
VL: DIVMTQSPLSLPVTPGEPASISCRSSKSLLHSNGNTYLYWFLQKPGQSPQLLIYRMSNLASGVPDRFSGSGSGTAFTLKISRVEAEDVGVYYCMQHLEYPFTFGGGTKLEIK
notes: humanized
B12: Hu200C9B9-3 (antibody, V domains shown)
VH: EVQLVESGGGLVQPGGSLRLSCAASGFSFNTYVMNWVRQAPGKGLEWVGRIRTKSNNYATFYVDSVKDRFTISRDDSKNSLYLQMNSLKTEDTAVYYCARGTITRLGAGLDYWGQGTLVTVSS
VL: DIVMTQSPLSLPVTPGEPASISCRSSKSLLHSNGNTYLYWYLQKPGQSPQLLIYRMSNLASGVPDRFSGSGSGTAFTLKISRVEAEDVGVYYCMQHLEYPFTFGGGTKLEIK
notes: humanized
B13: Hu195H8D10-6 (antibody, V domains shown)
VH: EVQLVESGGGLVQPGGSLRLSCAASGFNFNTYVMNWVRQAPGKGLEWVARIRTKSNNYATYYADSVKDRFTISRDDSKNSLYLQMNSLKTEDTAVYYCVSGTITRLGGGLDYWGQGTLVTVSS
VL: DIVMTQSPLSLPVTPGEPASISCRSSKRLLHSNGNTYLYWFLQKPGQSPQLLIYRMSNLASGVPDRFSGSGSGTDFTLKISRVEAEDVGVYYCMQHLEYPFTFGGGTKLEIK
notes: humanized
B14: Hu195H8D10-10 (antibody, V domains shown)
VH: EVQLVESGGGLVQPGGSLRLSCAASGFNFNTYVMNWVRQAPGKGLEWVARIRTKSNNYATYYADSVKDRFTISRDDSKSSLYLQMNSLKTEDTAVYYCVSGTITRLGGGLDYWGQGTLVTVSS
VL: DIVMTQSPLSLPVTPGEPASISCRSSKRLLHSNGNTYLYWFLQKPGQSPQLLIYRMSNLASGVPDRFSGSGSGTDFTLKISRVEAEDVGVYYCMQHLEYPFTFGGGTKLEIK
notes: humanized
B15: Hu195H8D10-2 (antibody, V domains shown)
VH: EVQLVESGGGLVQPGGSLRLSCAASGFNFNTYVMNWVRQAPGKGLEWVGRIRTKSNNYATYYADSVKDRFTISRDDSKNSLYLQMNSLKTEDTAVYYCARGTITRLGGGLDYWGQGTLVTVSS
VL: DIVMTQSPLSLPVTPGEPASISCRSSKRLLHSNGNTYLYWFLQKPGQSPQLLIYRMSNLASGVPDRFSGSGSGTDFTLKISRVEAEDVGVYYCMQHLEYPFTFGGGTKLEIK
notes: humanized
B16: Hu200C9B9-13 (antibody, V domains shown)
VH: EVQLVESGGGLVQPGGSLRLSCAASGFSFNTYVMNWVRQAPGKGLNWVARIRTKSNNYATFYVDSVKDRFTISRDDSENSLYLQMNSLKTEDTAVYYCVSGTITRLGAGLDYWGQGTLVTVSS
VL: DIVMTQSPLSLPVTPGEPASISCRSSKSLLHSNGNTYLYWYLQKPGQSPQLLIYRMSNLASGVPDRFSGSGSGTDFTLKISRVEAEDVGVYYCMQHLEYPFTFGGGTKLEIK
notes: humanized
B17: Hu200C9B9-9 (antibody, V domains shown)
VH: EVQLVESGGGLVQPGGSLRLSCAASGFSFNTYVMNWVRQAPGKGLNWVARIRTKSNNYATFYVDSVKDRFTISRDDSKNSLYLQMNSLKTEDTAVYYCVSGTITRLGAGLDYWGQGTLVTVSS
VL: DIVMTQSPLSLPVTPGEPASISCRSSKSLLHSNGNTYLYWYLQKPGQSPQLLIYRMSNLASGVPDRFSGSGSGTDFTLKISRVEAEDVGVYYCMQHLEYPFTFGGGTKLEIK
notes: humanized
B18: Hu195H8D10-1 (antibody, V domains shown)
VH: EVQLVESGGGLVQPGGSLRLSCAASGFNFNTYVMNWVRQAPGKGLEWVGRIRTKSNNYATYYADSVKDRFTISRDDSKNSLYLQMNSLKTEDTAVYYCARGTITRLGGGLDYWGQGTLVTVSS
VL: DIVMTQSPLSLPVTPGEPASISCRSSKRLLHSNGNTYLYWYLQKPGQSPQLLIYRMSNLASGVPDRFSGSGSGTDFTLKISRVEAEDVGVYYCMQHLEYPFTFGGGTKLEIK
notes: humanized
B19: Hu195H8D10-4 (antibody, V domains shown)
VH: EVQLVESGGGLVQPGGSLRLSCAASGFNFNTYVMNWVRQAPGKGLEWVGRIRTKSNNYATYYADSVKDRFTISRDDSKNSLYLQMNSLKTEDTAVYYCARGTITRLGGGLDYWGQGTLVTVSS
VL: DIVMTQSPLSLPVTPGEPASISCRSSKRLLHSNGNTYLYWFLQKPGQSPQLLIYRMSNLASGVPDRFSGSGSGTAFTLKISRVEAEDVGVYYCMQHLEYPFTFGGGTKLEIK
notes: humanized
B20: Hu195H8D10-12 (antibody, V domains shown)
VH: EVQLVESGGGLVQPGGSLRLSCAASGFNFNTYVMNWVRQAPGKGLEWVARIRTKSNNYATYYADSVKDRFTISRDDSKSSLYLQMNSLKTEDTAVYYCVSGTITRLGGGLDYWGQGTLVTVSS
VL: DIVMTQSPLSLPVTPGEPASISCRSSKRLLHSNGNTYLYWFLQKPGQSPQLLIYRMSNLASGVPDRFSGSGSGTAFTLKISRVEAEDVGVYYCMQHLEYPFTFGGGTKLEIK
notes: humanized
B21: Hu195H8D10-15 (antibody, V domains shown)
VH: EVQLVESGGGLVQPGGSLRLSCAASGFNFNTYVMNWVRQAPGKGLEWVARIRTKSNNYATYYADSVKDRFTISRDDSESSLYLQMNSLKTEDTAMYYCVSGTITRLGGGLDYWGQGTLVTVSS
VL: DIVMTQSPLSLPVTPGEPASISCRSSKRLLHSNGNTYLYWYLQKPGQSPQLLIYRMSNLASGVPDRFSGSGSGTAFTLKISRVEAEDVGVYYCMQHLEYPFTFGGGTKLEIK
notes: humanized

Biological target: T1, human C-C motif chemokine receptor 8 (CCR8) (human, UniProt P51685 1-355)
T1 construct: whole, on cells; also called human CCR8; hCCR8
T1 sequence (P51685 whole entry): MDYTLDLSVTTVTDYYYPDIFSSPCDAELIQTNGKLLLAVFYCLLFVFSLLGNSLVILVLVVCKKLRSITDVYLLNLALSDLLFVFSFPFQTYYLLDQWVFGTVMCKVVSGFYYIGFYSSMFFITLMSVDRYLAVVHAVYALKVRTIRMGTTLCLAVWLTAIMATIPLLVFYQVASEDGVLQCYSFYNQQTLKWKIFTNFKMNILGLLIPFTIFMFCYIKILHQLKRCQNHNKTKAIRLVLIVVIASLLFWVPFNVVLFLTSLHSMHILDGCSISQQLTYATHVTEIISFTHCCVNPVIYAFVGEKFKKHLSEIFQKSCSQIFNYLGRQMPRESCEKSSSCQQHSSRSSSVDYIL
Assay: FACS (MFI-PE) on CHO-K1 hCCR8 cells, bars at five doses
Description: PE Goat anti-Human IgG Fc Secondary Antibody (eBioscience™, Invitrogen) was added to each well and incubated at 4° C. for 30 mins. Samples were washed twice with FACS buffer. The mean florescence intensity (MFI) of PE was evaluated by MACSQuant Analyzer 16.

Binding result, binds:
B1
B2
B3
B4
B5
B6
B7
B8
B9
B10
B11
B12
B13
B14
B15
B16
B17
B18
B19
B20
B21
